From patent US20160311934A1, “HYDROXYALKYL STARCH DERIVATIVES AS REACTANTS FOR COUPLING TO THIOL GROUPS” (FRESENIUS KABI DEUTSCHLAND GMBH, priority 2013, published 2016)
Residue numbers refer to the chain shown, from its start. Names and notes keep the numbering of the source.

Tests used:
[1] = molecular target: T1, Interleukin 1 receptor type I (Homo sapiens, UniProt P14778); test: SPR binding affinity on a BIAcore system; details: immobilized receptor on CM3 chip, 1:1 binding stoichiometry
T1 construct: purchased R&D Systems
T1 sequence (P14778 18-569): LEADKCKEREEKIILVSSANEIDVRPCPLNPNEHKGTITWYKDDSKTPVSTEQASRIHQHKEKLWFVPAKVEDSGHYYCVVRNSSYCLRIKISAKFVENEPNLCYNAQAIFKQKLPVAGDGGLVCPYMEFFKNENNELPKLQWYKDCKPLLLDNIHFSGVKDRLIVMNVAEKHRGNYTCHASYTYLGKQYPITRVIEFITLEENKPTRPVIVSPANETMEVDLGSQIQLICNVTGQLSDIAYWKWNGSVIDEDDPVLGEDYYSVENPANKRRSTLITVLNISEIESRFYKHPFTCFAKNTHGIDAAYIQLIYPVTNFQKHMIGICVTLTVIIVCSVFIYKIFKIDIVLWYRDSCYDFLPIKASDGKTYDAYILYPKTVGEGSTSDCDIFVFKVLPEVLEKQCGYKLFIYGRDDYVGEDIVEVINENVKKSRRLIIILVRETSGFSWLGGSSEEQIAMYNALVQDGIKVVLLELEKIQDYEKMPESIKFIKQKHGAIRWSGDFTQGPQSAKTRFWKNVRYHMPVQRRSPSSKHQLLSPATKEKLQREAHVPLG
Experimental: Conjugates of L12-HES with IL1RA were tested for binding affinity to its natural binding partner using SPR on a BIAcore system. Interleukin 1 receptor type I (R&D Systems) was immobilized on the chip surface and the kinetic binding parameters were determined for the conjugate in comparison to the unmodified protein (chip: CM3, immobilization: 950 RU, flow rate 30 μl/min, association 180 s, dissociation 900 s, regeneration: 6 s with 5 mM glycine buffer, pH 2.0). The curves were analyzed by assuming a 1:1 binding stoichiometry.

[2] = test system: peptidyl prolyl bonds; test: Prolyl isomerase activity assay; type: biochemical
Experimental: Prolylisomerases like SlyD catalyze the trans to cis isomerization of peptidyl prolyl bonds. The prolyl isomerase activities of SlyD and the L12-HES-SlyD conjugate were measured by a prolyl isomerase activity assay according to Zoldak et al. (2009, Biochemistry, 48, 10423-10436). The rate constant of the cis to trans isomerization of the prolyl bond was determined using Origin 8.1. […] The catalytic activity of unmodified SlyD is 5.6·10^6 M^−1s^−1 and the activity of the L12-HES-SlyD conjugate is 6.0·10^6 M^−1s^−1 (107% of the activity of unconjugated SlyD). The higher activity of the conjugate compared to unmodified SlyD is within the error of the assay.

[3] = Stability tests of HES-protein conjugates at different pH, 40° C., 20 days; type: physicochemical; details: protein conjugate 1 mg/ml
Experimental: For stability tests at pH 4.0, 5.5, 7.0 and 8.0, the conjugates were diluted into final buffer conditions of 20 mM acetate (pH 4.0 and 5.5) or 10 mM phosphate (pH 7.0 and 8.0), 0.5 mM ETDA, 154 mM NaCl to a final concentration of 1 mg/ml. The conjugates were stored at 40° C. for 20 days and analyzed by RP-HPLC (example for Ubi is shown in FIG. 3), SEC (as described in example C1) or SDS-PAGE (as described in example C1).

Molecule: IL1RA that is conjugated to HES via N-terminal coupling: IL1RA that is conjugated to HES via N-terminal coupling
- association rate ka [1]: 263000 M⁻¹ s⁻¹

Molecule: unmodified IL1RA: interleukin-1 receptor antagonist (Kineret®), unconjugated
- association rate ka [1]: 588000 M⁻¹ s⁻¹

B1: unmodified SlyD: SlyD D101C, sensitive to lysis protein D, a prolylisomerase, unconjugated (protein, UniProt P0A9K9 1-196, looked up, variant D101C)
FKBP-type peptidyl-prolyl …: MKVAKDLVVSLAYQVRTEDGVLVDESPVSAPLDYLHGHGSLISGLETALEGHEVGDKFDVAVGANDAYGQYDENLVQRVPKDVFMGVDELQVGMRFLAETCQGPVPVEITAVEDDHVVVDGNHMLAGQNLKFNVEVVAIREATEEELAHGHVHGAHDHHHDHDHDGCCGGHGHDHGHEHGGEGCCGGKGNGGCGCH
- catalytic activity (prolyl isomerization) [2]: 5.6e+06 M⁻¹ s⁻¹

B2: L12 X12 SlyD (conjugate, UniProt P0A9K9 1-196, looked up)
FKBP-type peptidyl-prolyl …: B1 FKBP-type peptidyl-prolyl … with C101D
modifications: HES X12 via linker L12
- conjugate degradation after 20 days (%) pH 7.0 ([3]; 10 mM phosphate pH 7.0, 40° C.): 3.4%
- conjugate degradation after 20 days (%) pH 8.0 ([3]; 10 mM phosphate pH 8.0, 40° C.): 9.0%
- conjugate degradation after 20 days (%) pH 5.5 ([3]; 20 mM acetate pH 5.5, 40° C.): 1.4%
- catalytic activity (prolyl isomerization) [2]: 6e+06 M⁻¹ s⁻¹
- % of the activity of unconjugated SlyD ([2]; relative to unconjugated SlyD): 107%
